Measurements as given in patent publication EP4545091A1 (priority 2023, dated 2025).

Molecular target: TMPRSS2 on cells (UniProt O15393)
Experiment: cell-based or functional assay

Trypstatin (AMBP 284-344) (peptide)
IC50, MERS-CoV spike pseudoparticle entry into CaCo-2 cells (luciferase): 78 nM | IC50, SARS-CoV spike pseudoparticle entry into CaCo-2 cells (luciferase): 31 nM
